# Reference: patent EP3964526A1 (Novartis AG, dated 2022)
# Substitutions are numbered along the chain they refer to.
# B1: 511-min (scFv, V domains shown)
# VH: EVQLVESGGGLVQPGGSLRLSCAASGFSLNTYYMNWVRQAPGKGLEWVSIIAPDDTTYYASWAKSRFTISRDNSKNTLYLQMNSLRAEDTAVYYCAKSGDTTAWGADIWGQGTLVTVSS
# VL: EIVMTQSPSTLSASVGDRVIITCQASQSINIWCSWYQQKPGKAPKLLIYRASTLASGVPSRFSGSGSGAEFTLTISSLQPDDFATYYCQANYAYSAGYGAAFGQGTKLTVL
# B2: 578-min (scFv)
# chain: EIVMTQSPSTLSASVGDRVIITCQASEIIHSWLAWYQQKPGKAPKLLIYLASTLASGVPSRFSGSGSGAEFTLTISSLQPDDFATYYCQNVYLASTNGANFGQGTKLTVLGGGGGSGGGGSGGGGSGGGGSEVQLVESGGGLVQPGGSLRLSCAASGFSLTDYYYMTWVRQAPGKGLEWVSFIDPDDDPYYATWAKGRFTISRDNSKNTLYLQMNSLRAEDTAVYYCAKGDHNSGWGLDIWGQGTLVTVSS
# B3: 578-max (scFv)
# chain: B2 chain with A69T, E70Q, A154T, S181G, N205T, L210V, K229G
# B4: 511-max (scFv)
# chain: EIVMTQSPSTLSASVGDRVIITCQASQSINIWLSWYQQKPGKAPKLLIYRASTLASGVPSRFSGSGSGTEFTLTISSLQPDDFATYYCQANYAYSAGYGAAFGQGTKLTVLGGGGGSGGGGSGGGGSGGGGSEVQLVESGGGLVQPGGSLRLSCTVSGFSLNTYYMNWVRQAPGKGLEWVGIIAPDDTTYYASWAKSRSTISRDTSKNTVYLQMNSLRAEDTAVYYCARSGDTTAWGADIWGQGTLVTVSS
# B5: 567-min (scFv)
# chain: EIVMTQSPSTLSASVGDRVIITCQADQSIYIWLSWYQQKPGKAPKLLIYKASTLESGVPSRFSGSGSGAEFTLTISSLQPDDFATYYCQNNAHYSTNGGTFGQGTKLTVLGGGGGSGGGGSGGGGSGGGGSEVQLVESGGGLVQPGGSLRLSCAASGFSLSDYYMCWVRQAPGKGLEWVSCLDYFGSTDDASWAKGRFTISRDNSKNTLYLQMNSLRAEDTAVYYCAKTDDSRGWGLNIWGQGTLVTVSS
# B6: 567-max (scFv)
# chain: B5 chain with A69T, E70Q, A154S, A155V, S180G, R202K, N204T, L209V, K228R
# B7: 509-max (scFv)
# chain: EIVMTQSPSTLSASVGDRVIITCQASQNIRIWLSWYQQKPGKAPKLLIYKASTLESGVPSRFSGSGSGTEFTLTISSLQPDDFATYYCQNNAHYSTNGGTFGQGTKLTVLGGGGGSGGGGSGGGGSGGGGSEVQLVESGGGLVQPGGSLRLSCTASGFSLSSYYMCWVRQAPGKGLEWVGCLDYVGDTDYASWAKGRFTISKDASKNTVYLQMNSLRAEDTAVYYCARTDDSRGWGLNIWGQGTLVTVSS
# B8: 509-min (scFv)
# chain: B5 chain with D26S, S28N, Y30R, D162S, F185V, S187D, D190Y
# B9: EP42_max (scFv)
# chain: EIVMTQSPSTLSASVGDRVIITCQSTESVYKNNYLAWYQQKPGKAPKLLIYDASTLASGVPSRFSGSGSGTEFTLTISSLQPDDFATYYCAGYYRSGFGTANGSFGQGTKLTVLGGGGGSGGGGSGGGGSGGGGSEVQLVESGGGSVQPGGSLRLSCTVSGIDLRNDAISWVRQAPGKGLEWVSYISDWGIKYYASWVKGRFTISKDTSKNTVYLQMNSLRAEDTATYYCARGAPGAGDNGIWGQGTTVTVSS
# B10: EP43_max (scFv)
# chain: EIVMTQSPSTLSASVGDRVIIKCQASQSISDWLAWYQQKPGKAPKLLIYGASRLASGFPSRFSGSGSGAEFTLTISGLEPADFATYYCQQGWSDSYVDNLFGQGTKLTVLGGGGGSGGGGSGGGGSGGGGSEVQLVESGGGLVQPGGSLRLSCTVSGFSLSSGAMSWVRQAPGKGLEWVGVIISSGATYYASWAKGRFTISKDTSKNTVYLQMNSLRAEDTAVYYCARGGPDDSNSMGTFDPWGQGTLVTVSS
# B11: EP35_max (scFv)
# chain: EIVMTQSPSTLSASVGDRVIITCQASQSISNLLAWYQQKPGKAPKLLIVAASKLASGVPSRFSGSGSGTEFTLTISSLQPDDFATYYCQQGWSHTNVDNTFGQGTKLTVLGGGGGSGGGGSGGGGSGGGGSEVQLVESGGGSVQPGGSLRLSCTASGFSFSVGYWICWVRQAPGKGLEWVACIDAGTSGGTYYATWAKGRFTISKDTSKNTVYLQMNSLRAEDTATYYCARGVSSNGYYFKLWGQGTTVTVSS
# Target: T1, recombinant human VEGF165 (PeproTech EC Ltd.) (human, UniProt P15692-4 27-191)
# T1 construct: Amine-coupled to a CM4 sensor chip; also called hVEGF165
# Assay: SPR BIAcore T100, hVEGF165 amine-coupled on CM4 chip, scFv as analyte
# T1 sequence (P15692 other isoform, or with tags, fused parts or gaps limits assumed): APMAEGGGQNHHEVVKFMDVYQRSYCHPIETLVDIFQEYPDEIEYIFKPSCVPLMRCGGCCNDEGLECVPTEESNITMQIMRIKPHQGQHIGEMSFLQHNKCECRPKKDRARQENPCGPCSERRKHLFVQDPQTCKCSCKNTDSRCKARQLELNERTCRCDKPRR
Binder,Kd [nM],koff [s⁻¹],kon [M⁻¹ s⁻¹]
B1,2.53,0.00128,505000
B2,9.01,0.0103,1.14e+06
B3,0.439,0.000307,700000
B4,0.0667,4.4e-05,659000
B5,0.23,0.000461,2.01e+06
B6,0.188,0.000226,1.2e+06
B7,1.21,0.00272,2.26e+06
B8,1.82,0.00114,623000

# Target: VEGF (as used in the VEGFR competition ELISA)
# Assay: competition ELISA against hVEGR1, EC50 ratio to reference Luc; second of two values in the cell
# Chain of VEGF (as used in the VEGFR competition ELISA) (P15692 whole entry): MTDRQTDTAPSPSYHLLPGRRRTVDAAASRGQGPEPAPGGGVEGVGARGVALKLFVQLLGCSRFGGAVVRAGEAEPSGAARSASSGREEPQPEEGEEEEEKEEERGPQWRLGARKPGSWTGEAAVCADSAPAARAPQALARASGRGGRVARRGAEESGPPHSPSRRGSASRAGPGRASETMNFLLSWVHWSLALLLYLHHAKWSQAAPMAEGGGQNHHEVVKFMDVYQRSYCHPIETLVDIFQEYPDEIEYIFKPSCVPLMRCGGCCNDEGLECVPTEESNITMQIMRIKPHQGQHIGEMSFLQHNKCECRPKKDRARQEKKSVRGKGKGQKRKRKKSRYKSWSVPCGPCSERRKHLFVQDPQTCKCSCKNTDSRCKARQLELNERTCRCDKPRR
row,Binder,Rel. activity hVEGR1 comp. ELISA (EC50Luc[nM]/EC50test[nM]) [ratio]
1,B3,51.6
2,B6,54.5

# Target: T2, Human TNFa N-his trimers (human, UniProt P01375 77-233)
# T2 construct: Captured at 5 nM on an NTA sensor chip by the N-terminal his-tags; also called His-tagged TNF (produced at ESBATech); not shown: N-terminal his-tag
# Assay: SPR BIAcore T100, His-tagged human TNF trimers captured on NTA chip, scFv as analyte
# T2 sequence (P01375 77-233 limits assumed): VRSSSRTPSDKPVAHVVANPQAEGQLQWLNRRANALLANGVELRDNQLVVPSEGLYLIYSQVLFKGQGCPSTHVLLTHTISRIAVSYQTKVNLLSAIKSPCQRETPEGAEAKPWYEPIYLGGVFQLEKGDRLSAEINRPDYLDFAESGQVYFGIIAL
row,Binder,Kd [nM]
1,B9,3.46
2,B10,0.251
3,B11,0.194

# Target: VEGF (as used in the VEGFR competition ELISA)
# Assay: competition ELISA against hVEGR1, EC50 ratio to reference Luc
row,Binder,Rel. activity hVEGR1 comp. ELISA (EC50Luc[nM]/EC50test[nM]) [ratio]
1,B1,0.7
2,B2,4.8
3,B4,8
4,B5,57
5,B7,13
6,B8,2.9

# Target: VEGF (as used in the VEGFR competition ELISA)
# Assay: competition ELISA against hVEGR1, EC50 ratio to reference Luc; first of two values in the cell
row,Binder,Rel. activity hVEGR1 comp. ELISA (EC50Luc[nM]/EC50test[nM]) [ratio]
1,B3,35.5
2,B6,15.7
